# Data reported in patent US20120316071A1 (published 2012).
# Changes are numbered by the printed parent chain. Numbers in names are those of the source.
# B1: Fab VH1-46_IGHD6-6*01_IGHJ1*01 S102A/S103P/S104F (APF) & L6_IGKJ1*01 (Fab, V domains shown)
# VH: QVQLVQSGAEVKKPGASVKVSCKASGYTFTSYYMHWVRQAPGQGLEWMGIINPSGGSTSYAQKFQGRVTMTRDTSTSTVYMELSSLRSEDTAVYYCAREEYAPFSAEYFQHWGQGTLVTVSS
# VL: not shown
# notes: Fab made in E. coli (heavy chain in plasmid A with CH1, His6 and Flag tags; kappa light chain in plasmid C); also called APF / parent; H:APF & L:wt
# B2: Fab VH1-46_IGHD6-6*01_IGHJ1*01 S102A/S103P/S104F (APF) & L6_IGKJ1*01 S92C (Fab, V domains shown)
# VH: B1 VH
# VL: EIVLTQSPATLSLSPGERATLSCRASQSVSSYLAWYQQKPGQAPRLLIYDASNRATGIPARFSGSGSGTDFTLTISSLEPEDFAVYYCQQRCNWPPWTFGQGTKVEIKR
# notes: Fab made in E. coli (heavy chain in plasmid A with CH1, His6 and Flag tags; kappa light chain in plasmid C); also called APF / S92C
# B3: Fab VH1-46_IGHD6-6*01_IGHJ1*01 S102A/S103P/S104F (APF) & L6_IGKJ1*01 S92N (Fab, V domains shown)
# VH: B1 VH
# VL: B2 VL with C92N
# notes: Fab made in E. coli (heavy chain in plasmid A with CH1, His6 and Flag tags; kappa light chain in plasmid C); also called APF / S92N
# Tests used:
# [1] = molecular target: T1, rHuman Notch-1/Fc Chimera, CF (R&D Systems Cat#3647-TK) (human); assay: ECL multispot (MSD) assay, antigen spotted on plate, Fab in solution; blank spot of this well 224
# T1 construct: Bought recombinant protein
# [2] = molecular target: T2, rHuman Erythropoietin R/Fc Chimera, CF (R&D Systems Cat#963-ER) (human, UniProt P19235 25-250); assay: as above
# T2 construct: Bought recombinant protein; also called EPO R; EPO R/Fc
# [3] = molecular target: T3, rHuman EGF R/Fc Chimera, CF (R&D Systems Cat#344-ER) (human, UniProt P00533 25-645); assay: as above
# T3 construct: Bought recombinant protein; also called epidermal growth factor receptor
# [4] = molecular target: T4, Recombinant Human DLL4 (R&D Systems Cat#1506-D4/CF) (human, UniProt Q9NR61 27-524); assay: as above
# T4 construct: Bought recombinant protein; also called delta-like protein 4; rHuman DLL4
# [5] = molecular target: T5, rHuman IGF-1 sR (insulin-like growth factor-1 soluble receptor), CF (R&D Systems Cat#391-GR) (human, UniProt P08069 31-932); assay: as above
# T5 construct: Bought recombinant soluble receptor
# [6] = molecular target: T6, rHuman CD44/Fc Chimera, CF (R&D Systems Cat#3660-CD) (human, UniProt P16070 21-220); assay: as above
# T6 construct: Bought recombinant protein
# [7] = molecular target: T7, rHuman HGF R/c-MET/Fc Chimera, CF (R&D Systems Cat#358-MT/CF) (human, UniProt P08581 25-932); assay: as above
# T7 construct: Bought recombinant protein; also called HGF R/Fc; hepatocyte growth factor receptor
# [8] = molecular target: T8, rHuman P-Cadherin/Fc Chimera, CF (R&D Systems Cat#861-PC) (human, UniProt P22223 108-654); assay: as above
# T8 construct: Bought recombinant protein
# [9] = molecular target: T9, rHuman ErbB2/Fc Chimera, CF (R&D Systems Cat#1129-ER) (human, UniProt P04626 23-652); assay: as above
# T9 construct: Bought recombinant protein; also called human epidermal growth factor 2 receptor
# [10] = molecular target: T1, rHuman Notch-1/Fc Chimera, CF (R&D …); assay: ECL multispot (MSD) assay, antigen spotted on plate, Fab in solution; blank spot of this well 271
# [11] = molecular target: T2, rHuman Erythropoietin R/Fc Chimera, CF …; assay: as above
# [12] = molecular target: T3, rHuman EGF R/Fc Chimera, CF (R&D …); assay: as above
# [13] = molecular target: T4, Recombinant Human DLL4 (R&D Systems …); assay: as above
# [14] = molecular target: T5, rHuman IGF-1 sR (insulin-like growth …); assay: as above
# [15] = molecular target: T6, rHuman CD44/Fc Chimera, CF (R&D Systems …); assay: as above
# [16] = molecular target: T7, rHuman HGF R/c-MET/Fc Chimera, CF (R&D …); assay: as above
# [17] = molecular target: T8, rHuman P-Cadherin/Fc Chimera, CF (R&D …); assay: as above
# [18] = molecular target: T9, rHuman ErbB2/Fc Chimera, CF (R&D …); assay: as above
# [19] = molecular target: T1, rHuman Notch-1/Fc Chimera, CF (R&D …); assay: ECL multispot (MSD) assay, antigen spotted on plate, Fab in solution; blank spot of this well 204
# [20] = molecular target: T2, rHuman Erythropoietin R/Fc Chimera, CF …; assay: as above
# [21] = molecular target: T3, rHuman EGF R/Fc Chimera, CF (R&D …); assay: as above
# [22] = molecular target: T4, Recombinant Human DLL4 (R&D Systems …); assay: as above
# [23] = molecular target: T5, rHuman IGF-1 sR (insulin-like growth …); assay: as above
# [24] = molecular target: T6, rHuman CD44/Fc Chimera, CF (R&D Systems …); assay: as above
# [25] = molecular target: T7, rHuman HGF R/c-MET/Fc Chimera, CF (R&D …); assay: as above
# [26] = molecular target: T8, rHuman P-Cadherin/Fc Chimera, CF (R&D …); assay: as above
# [27] = molecular target: T9, rHuman ErbB2/Fc Chimera, CF (R&D …); assay: as above
# [28] = molecular target: T10, rHuman P-Cadherin/Fc Chimera, CF (R&D Systems Cat#861-PC) (human, UniProt P22223 108-654); assay: ECL multispot (MSD) assay, antigen spotted on plate, Fab in solution; blank spot of this well 338
# [29] = molecular target: T11, rHuman Notch-1/Fc Chimera, CF (R&D Systems Cat#3647-TK) (human); assay: as above
# T11 chain: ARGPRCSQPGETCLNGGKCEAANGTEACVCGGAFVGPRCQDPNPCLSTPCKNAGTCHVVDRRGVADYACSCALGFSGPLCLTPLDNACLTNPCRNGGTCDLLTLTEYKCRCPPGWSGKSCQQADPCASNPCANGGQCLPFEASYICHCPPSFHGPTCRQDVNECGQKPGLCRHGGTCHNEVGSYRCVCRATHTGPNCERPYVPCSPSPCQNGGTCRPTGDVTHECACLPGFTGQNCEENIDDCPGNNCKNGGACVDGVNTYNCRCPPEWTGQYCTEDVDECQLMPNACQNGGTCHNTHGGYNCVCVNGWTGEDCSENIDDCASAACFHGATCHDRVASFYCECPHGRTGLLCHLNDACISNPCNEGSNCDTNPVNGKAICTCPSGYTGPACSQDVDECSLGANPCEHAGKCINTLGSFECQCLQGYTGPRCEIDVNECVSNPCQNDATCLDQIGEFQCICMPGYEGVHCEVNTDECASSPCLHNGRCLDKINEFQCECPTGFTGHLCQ
# [30] = molecular target: T12, rHuman CD44/Fc Chimera, CF (R&D Systems Cat#3660-CD) (human, UniProt P16070 21-220); assay: as above
# [31] = molecular target: T13, rHuman Erythropoietin R/Fc Chimera, CF (R&D Systems Cat#963-ER) (human, UniProt P19235 25-250); assay: as above
# [32] = molecular target: T14, rHuman HGF R/c-MET/Fc Chimera, CF (R&D Systems Cat#358-MT/CF) (human, UniProt P08581 25-932); assay: as above
# [33] = molecular target: T10, rHuman P-Cadherin/Fc Chimera, CF (R&D …); assay: ECL multispot (MSD) assay, antigen spotted on plate, Fab in solution; blank spot of this well 271
# [34] = molecular target: T11, rHuman Notch-1/Fc Chimera, CF (R&D …); assay: as above
# [35] = molecular target: T12, rHuman CD44/Fc Chimera, CF (R&D Systems …); assay: as above
# [36] = molecular target: T13, rHuman Erythropoietin R/Fc Chimera, CF …; assay: as above
# [37] = molecular target: T14, rHuman HGF R/c-MET/Fc Chimera, CF (R&D …); assay: as above
binder,measurement,setting,value
B1,ECL signal,[1],171
same,ECL signal,[2],0
same,ECL signal,[3],279
same,ECL signal,[4],2830
same,ECL signal,[5],168
same,ECL signal,[6],197
same,ECL signal,[7],275
same,ECL signal,[8],171
same,ECL signal,[9],149
same,ECL signal,[10],257
same,ECL signal,[11],304
same,ECL signal,[12],272
same,ECL signal,[13],3480
same,ECL signal,[14],241
same,ECL signal,[15],189
same,ECL signal,[16],306
same,ECL signal,[17],297
same,ECL signal,[18],330
same,ECL signal,[19],334
same,ECL signal,[20],329
same,ECL signal,[21],237
same,ECL signal,[22],2120
same,ECL signal,[23],197
same,ECL signal,[24],96
same,ECL signal,[25],272
same,ECL signal,[26],208
same,ECL signal,[27],157
B2,ECL signal,[28],265
same,ECL signal,[29],125
same,ECL signal,[30],156
same,ECL signal,[31],302
same,ECL signal,[32],335
B3,ECL signal,[33],240
same,ECL signal,[34],193
same,ECL signal,[35],316
same,ECL signal,[13],2090
same,ECL signal,[14],211
same,ECL signal,[36],304
same,ECL signal,[37],405
